B1: HDV Ribozyme (parent)
chain: GGCCGGCAUGGUCCCAGCCUCCUCGCUGGCGCCGGCUGGGCAACAUUCCGAGGGGACCGUCCCCUCGGUAAUGGCGAAUGGGACCCA

Variants of: B1
Assay: self-cleavage, relative activity (ratio to wild type); higher = more cleavage; co-transcriptional

Variant | self-cleavage
GGCCGGCAUGGUCCCAGCCUCCUCGCUGGCGCCGGGUGGGCAACAUUCCGAGGGGACCGUCCCCUUGGUAAUGGCGAAUGGGACCCA [C36G C66U] | 0.0997
GGCCGGCAUGGUCCCAGCCUCCUCGCUGGCGCCGGCUGGGCAACAUUCCGAGGGGACCGUCCCCGCGGUAAUGGCGAAUUGGACCCA [U65G G80U] | 0.261
GGCCGGCAUGGUCCCAGCCUCCUCGCUGGCGCCGGCUGGGCAACAUACCGAGGGGACCGUCCCCUCGGUAAUGGCGAAUAGGACCCA [U47A G80A] | 0.277
GGCCGGCAUGGUCCCAGCCUCCUCGCUGGCGCUGGCUGGGCAACAUUCCGAGGCGACCGUCCCCUCGGUAAUGGCGAAUGGGACCCA [C33U G54C] | 0.623
GGCCGGCAUGUUCCCAGCCUCCUCGCUGGCGCCGGCAGGGCAACAUUCCGAGGGGACCGUCCCCUCGGUAAUGGCGAAUGGGACCCA [G11U U37A] | 0.124
GGCCGGCAUGGUCCCAGCGUCCUCGCUGGCGCCGACUGGGCAACAUUCCGAGGGGACCGUCCCCUCGGUAAUGGCGAAUGGGACCCA [C19G G35A] | 0.0297
GGCCGGCAUGGUCCUAGCCUCCUCGCUGGCGCCGGCUGGGCAACAUUCGGAGGGGACCGUCCCCUCGGUAAUGGCGAAUGGGACCCA [C15U C49G] | 0.485
GGCCGGCAUGGUCCCAGCCUCCUCGCUGGCGCCGGCUGGACAACAUUCCGAGGGGACCGUCCCCUCGGUAAUGGAGAAUGGGACCCA [G40A C75A] | 0.0831
GGCCGGUUUGGUCCCAGCCUCCUCGCUGGCGCCGGCUGGGCAACAUUCCGAGGGGACCGUCCCCUCGGUAAUGGCGAAUGGGACCCA [C7U A8U] | 0.831
GGCCGGCAUGGACCCAGCCUCCUCGCUGGCGCCGGCUGGGCAACAUUCCGAGGGGACCGGCCCCUCGGUAAUGGCGAAUGGGACCCA [U12A U60G] | 0
GGCCGGCAUGGUCCCAGCCUCCUCGCUGGCGCCGGCUGGGCAACAUUCCGAGGGGACCGUCCCCUCGGUAAAGACGAAUGGGACCCA [U72A G74A] | 0.373
GGCCGGCAUGGUACCAGCCUCCUCGCUGGCGCCGGCUGUGCAACAUUCCGAGGGGACCGUCCCCUCGGUAAUGGCGAAUGGGACCCA [C13A G39U] | 0.0615
GGCCGUCAUGGUCCCCGCCUCCUCGCUGGCGCCGGCUGGGCAACAUUCCGAGGGGACCGUCCCCUCGGUAAUGGCGAAUGGGACCCA [G6U A16C] | 0
GGCCGGCAUGGUCCCAGCCUCCUCGCAGGCGCCGGCUGGGCAACAUUCCGAGGGGACCGUCCCCUCGGUAAUGGAGAAUGGGACCCA [U27A C75A] | 0.147
GGCCGGCAUGGUCCCAGCCUCCUCGCUGGCGCCGGCUGGGCAACAUUCCGAGGGGACCGUCCCCUCGGGAGUGGCGAAUGGGACCCA [U69G A71G] | 1.16
GGCCCGCAUGGUCCCAGCCUCCUCGCUGGCGCCGGCUUGGCAACAUUCCGAGGGGACCGUCCCCUCGGUAAUGGCGAAUGGGACCCA [G5C G38U] | 0

Variant | self-cleavage
GGCCGGCAUGGUCCCAGCCUUCUCGCUGGCGCCGGCUGGGCCACAUUCCGAGGGGACCGUCCCCUCGGUAAUGGCGAAUGGGACCCA [C21U A42C] | 0.203
GGCCGGCGUGGUCCCAGCCUCCUCGCUGGCGCCGGCUGGGCAACAUUCCGAGGGGACCGUCCCCGCGGUAAUGGCGAAUGGGACCCA [A8G U65G] | 0.906
GCCCGGCAUGGUCCCAGACUCCUCGCUGGCGCCGGCUGGGCAACAUUCCGAGGGGACCGUCCCCUCGGUAAUGGCGAAUGGGACCCA [G2C C18A] | 0.0346
GGCCGCCAUGGUCCCAUCCUCCUCGCUGGCGCCGGCUGGGCAACAUUCCGAGGGGACCGUCCCCUCGGUAAUGGCGAAUGGGACCCA [G6C G17U] | 0.237
GGCCGGCAUGGUCCCAGCCUCCUCGCUGGCGACGGGUGGGCAACAUUCCGAGGGGACCGUCCCCUCGGUAAUGGCGAAUGGGACCCA [C32A C36G] | 0.162
GGCCGGCAUGGUCCCAGCCUCCUCGCUGGCGCCGCCUGGGCAACAUACCGAGGGGACCGUCCCCUCGGUAAUGGCGAAUGGGACCCA [G35C U47A] | 0.0594
GUCCGGCAUGGUCCCAGCCUCCUCGCUGGCGCCGGCUGGGCAACAUUCAGAGGGGACCGUCCCCUCGGUAAUGGCGAAUGGGACCCA [G2U C49A] | 0.118
GGCCGGCAUGGUUCCAGCCUCCUCGCUGGCGCCGGCUGGGCAACAUUCCGAGGGGAACGUCCCCUCGGUAAUGGCGAAUGGGACCCA [C13U C57A] | 0.831
GGCCGGGAUGGUCCCAGCCUCCUCGCUGGCGCCGGCUGGGCAACAUUCCCAGGGGACCGUCCCCUCGGUAAUGGCGAAUGGGACCCA [C7G G50C] | 0.138
GGCCGGCAUGGUCCCAGCCUCCUCGCUGGCGCCGGCUGGGCAACAUUCCGAGGGAACCGUCCCCUCGGUAGUGGCGAAUGGGACCCA [G55A A71G] | 1.1
GGCCGGCAUGGUCCCAGCCUCCUCGCUGGCGCCGGCUGGGCAACAUGCCGAGGGGACCGUUCCCUCGGUAAUGGCGAAUGGGACCCA [U47G C61U] | 0.943
GGCCGGCAUGGUCCCAGCCUCCUCGCUGGCGCCGGCUGGGCAACAUUCCGAGGGGACUCUCCCCUCGGUAAUGGCGAAUGGGACCCA [C58U G59C] | 0.923
GGCCGGCAUGCUCCCAGCCUCCUCGCUGGCGCCGGCUGGGCAACAUUCCGAGGGGACCGUCCCCUCGGUAAGGGCGAAUGGGACCCA [G11C U72G] | 0
GGCCGGCAUGGUCUCAGCCUCCUCGCUGGCGCCCGCUGGGCAACAUUCCGAGGGGACCGUCCCCUCGGUAAUGGCGAAUGGGACCCA [C14U G34C] | 0.172
GGCCGGCAUGGUCCCAGCCUCCUCGUUGGCGCCGGCUGGGCAACAUUCCGAGGGGAGCGUCCCCUCGGUAAUGGCGAAUGGGACCCA [C26U C57G] | 0.932
UGCCGGCAUGGUCCCAGCCUCCUCGCUGGCGCCGGCUGGGCAACAUUGCGAGGGGACCGUCCCCUCGGUAAUGGCGAAUGGGACCCA [G1U C48G] | 0.243

Source: the RNAGym collection of RNA variant scans (doi:10.7554/elife.80360)
